Literature values, collected in PMC3018525.
pKd: −log10 of the molar value. Read-outs that look alike come from different tables or passages of the source.

Assays:
[1] = target: EGF (Homo sapiens) (UniProt P01133)
[2] = target: EGF (Homo sapiens) (UniProt P01133); remark: listed apart in the source

Chain of UniProt P01133 (P01133 971-1023): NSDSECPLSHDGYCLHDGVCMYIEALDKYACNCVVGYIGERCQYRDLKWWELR

pKd [1] | pKd [2] | Substance
9.52 |  | EGFR (high-affinity) (from UniProt P00533)
 | 8.70 | EGFR (low-affinity) (from UniProt P00533)
